Measurements published in US7485710B2, “Nucleic acids coding for adhesion factor of group B streptococcus, adhesion factors of group B streptococcus and further uses thereof” (priority 2002, dated 2009).

What was measured:
GBS 6313 = experiment: Competitive inhibition of 125I-labelled fibrinogen binding to GBS; design: species or system Streptococcus agalactiae; details: for inhibition of fibrinogen binding to GBS: 160 μM synthetic peptide, radiolabelled fibrinogen
Method: FbsA-9 differs from FbsA-19 in that it contains only 9 repeats in its repeat domain. The binding assay was performed with ^125I-labelled fibrinogen in the presence of different concentrations of each fusion protein. Each experiment was performed at least in triplicate.
Each experiment was performed at least in triplicate.
Purified human fibrinogen was radiolabelled with ^125I, using the chloramin T method (Hunter and Greenwood, 1962). Binding of labelled fibrinogen to GBS was performed essentially as described by Chhatwal et al. (Chhatwal, Muller, and Blobel, 1983). Briefly, overnight cultures of GBS were pelleted by centrifugation, washed twice with phosphate-buffered saline supplemented with 0.02% Tween 20 (PBST) and adjusted photometrically to a transmission of 10% at 600 nm. A total of 0.2 ml of the bacterial suspension was added to 20 μl of ^125I-labelled fibrinogen containing 23 ng of fibrinogen. After incubation for 1 h at room temperature, the streptococci were sedimented by centrifugation and washed with 1 ml of PBST. The radioactivity of the pellet was finally measured in a gamma counter (Packard Instruments). The amount of bacterial-bound fibrinogen was calculated as the percentage of total radiolabelled fibrinogen added to the bacteria. In inhibition experiments, the binding of 23 ng of radiolabelled fibrinogen to 0.2 ml of GBS (T=10%) was determined in the presence of various amounts of FbsA fusion proteins, Bsp fusion protein or synthetic peptides. Each experiment was repeated at least three times in triplicate.

human fibrinogen [1] = biological target: T1, human fibrinogen (Homo sapiens, UniProt P02671+P02675+P02679); experiment: Spot membrane analysis of fibrinogen binding by synthetic peptides; details: peptides derived from FbsA repeat GNVLERRQRDAENRSQ
T1 construct: purchased Sigma-Aldrich
Method: Fibrinogen binding was tested with peptides carrying the FbsA repeat motif ‘GNVLERRQRDAENRSQ’ (SEQ ID 113) and with peptides containing the scrambled sequence ‘GLSQNRDVRENQRARE’. (SEQ ID 205) Synthetic peptides, which differed from the repeat motif in that single amino acids had been replaced by alanine, were probed for fibrinogen binding. Beside the spot membrane, the sequence of each synthetic peptide is listed. Bold and underlined letters indicate amino acid substitutions within the repeat motif.
Synthetic peptides were tested for fibrinogen binding, in which each of the amino acids of the fibrinogen-binding repeat was replaced by each of the 20 amino acids. The vertical letters, printed in bold, represent the FbsA-derived fibrinogen binding sequence ‘GNVLERRQRDAENRSQ’ (SEQ ID NO: 113). The horizontal letters represent those amino acids that were introduced in the synthetic peptides instead of the original amino acid in the respective position.
In Western blot experiments proteins were separated by SDS-PAGE and electroblotted onto nitrocellulose. […] For spot membrane experiments peptides of 16 amino acids were synthesized and equal amounts of the peptides were directly spotted onto cellulose paper as described previously (Frank and Overwin, 1996). Blocking was performed in membrane blocking solution (MBS) that consisted of 20 ml casein based blocking buffer (Genosys Biotechnologies, Cambridge, England), 80 ml Tris-buffered saline (TBS), 0.05% tween 20, and 5 g sucrose. Probing for fibrinogen-binding was performed as described below.
Membranes that had been blocked overnight were incubated for 1 h with 2 μg/ml of human fibrinogen. For Western and colony blot experiments, fibrinogen and antibodies were diluted in PBS while for spot membrane analysis they were diluted in MBS. Following three washes with PBS, the membrane was incubated with anti-fibrinogen antibodies (1:1000 in PBS or MBS) for 1 h. This incubation was followed by three washes with PBS, containing 0.05% tween 20 (PBST) and two washes with PBS. Subsequently, the membrane was incubated for 1 h with peroxidase-labelled anti-rabbit IgG (1:1000 in PBS or MBS). After three washes with PBST and two washes with PBS, bound fibrinogen was detected by chemiluminescence using the ECL-kit (Amersham/Pharmacia). In control experiments, no cross-reactivity of the used antibodies with the immobilized proteins and peptides was detected.

A549 cells = experiment: Epithelial cell adherence and internalization assay of GBS 6313 in presence of proteins; type: cell-based, human; details: fibrinogen 0.1 μg/ml to 1.0 μg/ml; fibronectin 10 μg/ml; data not shown
Method: The adherence of GBS 6313 to A549 cells (A) and its internalization into these cells (B) was arbitrarily set to 100% and the results obtained in the presence of the different fusion proteins was related to these values. Each experiment was performed at least three times in triplicate.
Adherence of GBS to epithelial cells and internalization into epithelial cells was assayed essentially as described previously (Caparon et al., 1991; Rubens et al. 1992). Briefly, A549 cells were transferred to 24-well tissue culture plates at approximately 4×10^5 cells per well and cultivated overnight in RPMI (Gibco BRL) tissue culture medium, supplemented with 10% of fetal calf serum. After replacement of the medium with 1 ml of fresh medium, the cells were infected with 5×10^6 streptococci per well and incubated at 37° C. for 2 h. The non-adherent bacteria were removed by washing three times with PBS. In adherence assays, the epithelial cells were subsequently detached from the well by the addition of trypsin/EDTA and lysed by adding 300 μl of distilled water. Adherent bacteria were quantitated by plating serial dilutions of the lysate onto THY agar plates. For internalization assays the epithelial cells were incubated after 2 h of infection for another 2 h in tissue culture medium supplemented with penicilling G (10 U) and streptomycin (0.01 mg) to kill extracellular bacteria. After three washes with PBS, the epithelial cells were detached by the addition of trypsin/EDTA and lysed in 300 μl of distilled water. The amount of intracellular bacteria was quantified by plating serial dilutions of the lysate onto THY agar plates. Each experiment was repeated at least three times in triplicate. […]
Adherence of S. agalactiae to A549 and HEL299 cells and internalization into these cells was assayed essentially as described in Example 1 for A549 cells. In some experiments, A549 cells were preincubated with different amounts of FbsA protein or FbsA-derived peptides in RPMI medium for 30 min with three subsequent washes with PBS.

human fibrinogen [2] = biological target: T1, human fibrinogen; experiment: Western blot of fusion proteins for fibrinogen binding; details: His-tagged fusion proteins separated by SDS-PAGE, blotted, probed with human fibrinogen
From the text: The fibrinogen binding activity of the three proteins encoded by different constructs are indicated below the schematic FbsA drawing.
The fusion proteins were size-separated by SDS-PAGE, transferred onto a nitrocellulose membrane and tested for fibrinogen binding by Western blotting. Bound fibrinogen was detected with rabbit anti-fibrinogen antibodies, followed by peroxidase-labelled goat anti-rabbit antibodies, and visualized by chemiluminescence. PabC and Gbs0851: full-length fusion proteins; PabC-N: N-terminal 388 amino acids of PabC; PabC-C: C-terminal 222 amino acids of PabC. (C) Identification of the FbsA and PabC-binding sites within human fibrinogen by Western blot analysis. […] Bound fusion proteins were detected with mouse anti-HisTag antibodies, followed by peroxidase-conjugated goat anti-mouse IgG fab fragments and visualized by chemiluminescence. […]
Membranes that had been blocked overnight were incubated for 1 h with 2 μg/ml of human fibrinogen. […] After three washes with PBST and two washes with PBS, bound fibrinogen was detected by chemiluminescence using the ECL-kit (Amersham/Pharmacia). In control experiments, no cross-reactivity of the used antibodies with the immobilized proteins and peptides was detected.

T1 sequence (P02675 31-491): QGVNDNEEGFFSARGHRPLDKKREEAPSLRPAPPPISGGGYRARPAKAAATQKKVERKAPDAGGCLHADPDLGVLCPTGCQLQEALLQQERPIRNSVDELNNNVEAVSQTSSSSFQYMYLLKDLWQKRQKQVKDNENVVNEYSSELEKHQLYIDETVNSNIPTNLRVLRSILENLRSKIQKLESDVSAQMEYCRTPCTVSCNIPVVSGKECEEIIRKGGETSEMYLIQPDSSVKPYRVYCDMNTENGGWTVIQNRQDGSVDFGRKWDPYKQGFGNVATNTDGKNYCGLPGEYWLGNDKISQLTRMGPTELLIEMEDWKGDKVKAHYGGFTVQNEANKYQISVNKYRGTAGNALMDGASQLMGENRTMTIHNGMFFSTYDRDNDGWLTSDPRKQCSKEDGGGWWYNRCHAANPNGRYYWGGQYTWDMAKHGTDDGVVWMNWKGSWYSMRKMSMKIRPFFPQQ
T1 sequence (P02679 27-433): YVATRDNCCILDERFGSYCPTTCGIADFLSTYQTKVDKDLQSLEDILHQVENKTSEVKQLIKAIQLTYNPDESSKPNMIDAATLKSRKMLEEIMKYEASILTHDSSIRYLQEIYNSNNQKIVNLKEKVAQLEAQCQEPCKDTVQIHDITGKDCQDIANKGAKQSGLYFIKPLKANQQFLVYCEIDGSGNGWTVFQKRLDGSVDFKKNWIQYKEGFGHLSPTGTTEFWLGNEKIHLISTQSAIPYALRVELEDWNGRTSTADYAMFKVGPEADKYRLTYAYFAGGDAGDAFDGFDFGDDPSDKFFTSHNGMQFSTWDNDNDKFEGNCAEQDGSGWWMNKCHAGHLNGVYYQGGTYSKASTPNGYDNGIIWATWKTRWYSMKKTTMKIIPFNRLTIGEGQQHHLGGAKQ
T1 sequence (P02671 20-629): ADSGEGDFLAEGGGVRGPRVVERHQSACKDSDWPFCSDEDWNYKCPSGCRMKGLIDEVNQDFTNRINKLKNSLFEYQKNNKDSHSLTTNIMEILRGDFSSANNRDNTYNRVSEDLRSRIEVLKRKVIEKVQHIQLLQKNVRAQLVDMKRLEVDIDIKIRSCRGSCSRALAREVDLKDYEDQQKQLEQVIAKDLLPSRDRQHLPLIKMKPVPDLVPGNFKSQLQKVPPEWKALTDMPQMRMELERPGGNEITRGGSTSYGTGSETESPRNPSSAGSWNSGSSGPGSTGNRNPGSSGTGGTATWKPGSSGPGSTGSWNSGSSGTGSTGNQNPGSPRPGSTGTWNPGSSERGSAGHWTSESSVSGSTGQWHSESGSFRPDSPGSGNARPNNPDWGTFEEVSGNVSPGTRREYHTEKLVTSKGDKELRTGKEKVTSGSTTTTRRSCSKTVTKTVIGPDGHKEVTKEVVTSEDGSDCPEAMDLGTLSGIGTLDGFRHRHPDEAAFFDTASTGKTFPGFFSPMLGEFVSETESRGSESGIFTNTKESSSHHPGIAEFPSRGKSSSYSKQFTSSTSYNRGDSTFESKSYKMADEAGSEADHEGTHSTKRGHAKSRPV

GNVLEARQRDAENRSQ [pep_R6A, synthetic FbsA repeat unit peptide carrying an R6A substitution]
inhibition of fibrinogen binding to GBS (GBS 6313): 20% | fibrinogen binding of synthetic 16-mer peptides on spot membrane (human fibrinogen [1]): significantly reduced binding to fibrinogen | fibrinogen binding of synthetic 16-mer peptides on spot membrane (human fibrinogen [1]; listed as R6A): retained little binding activity

fibronectin [reference compound]
bacterial adherence to A549 cells after pre-incubation of S. agalactiae 6313 with protein (A549 cells): did not exert an inhibitory effect | bacterial invasion of A549 cells after pre-incubation of S. agalactiae 6313 with protein (A549 cells): did not exert an inhibitory effect

GNVLERRQRDAENRSQ (listed as Streptococcus agalactiae) [pep_FbsA]
inhibition of fibrinogen binding to GBS (GBS 6313): 80% | fibrinogen binding of synthetic 16-mer peptides on spot membrane (human fibrinogen [1]): strong interaction

R^14K: FbsA repeat peptide with R14K substitution (GNVLERRQRDAENKSQ; listed as Streptococcus agalactiae)
fibrinogen binding of synthetic 16-mer peptides on spot membrane (human fibrinogen [1]): retained fibrinogen binding

GLSQNRDVRENQRARE (listed as Streptococcus agalactiae) [randomised peptide, reference compound]
fibrinogen binding of synthetic 16-mer peptides on spot membrane (human fibrinogen [1]): no binding of fibrinogen

B1: FbsA-N: fusion protein with the 19 N-terminal repeats of FbsA-19, truncated at its C-terminus (protein)
chain: MDSVGNQSQGNVLERRQRDAENRSQGNVLERRQRDVENKSQGNVLERRQRDAENKSQGNVLERRQRDAENRSQGNVLERRQRDAENRSQGNVLERRQRDAENRSQGNVLERRQRDAENRSQGNVLERRQRDAENRSQGNVLERRQRDVENKSQGNVLERRQRDAENKSQGNVLERRQRDAENRSQGNVLERRQRDAENRSQGNVLERRQRDAENRSQGNVLERRQRDAENRSQGNVLERRQRDAENRSQGNVLERRQRDAENRSQGNVLERRQRDAENRSQGNVLERRQRDAENRSQGNVLERRQRDAENKSQVGQLIG
modifications: left off: small tags and cut ends
notes: fusion protein with the 19 N-terminal repeats of FbsA-19, truncated at its C-terminus
fibrinogen binding in Western blot (human fibrinogen [2]): fibrinogen binding was observed

B2: FbsA-9: derivative of FbsA-19 fusion protein with only 9 repeats in its repeat domain (protein)
chain: MDSVGNQSQGNVLERRQRDAENRSQGNVLERRQRDVENKSQGNVLERRQRDAENKSQGNVLERRQRDAENRSQGNVLERRQRDAENRSQGNVLERRQRDAENRSQGNVLERRQRDAENRSQGNVLERRQRDAENRSQGNVLERRQRDAENKSQVGQLIGKNPLLSKSIISRENNHSSQGDSNKQSFSKKVSQVTNVANRPMLTNNSRTISVINKLPKTGDDQNV
modifications: left off: small tags and cut ends
notes: derivative of FbsA-19 fusion protein with only 9 repeats in its repeat domain
inhibition of binding of 125I-labelled fibrinogen to GBS 6313 (GBS 6313; increasing concentrations of purified fusion protein): significantly higher concentration of FbsA-9 had to be used to obtain a comparable inhibition
